This is an account of results in patent publication US9011913B2, “Use of functionalized magnetic nanoparticles in cancer detection and treatment” (The Regents of the University of California, priority 2008, dated 2015).

No end group written: not given here.

Data set [1] in a line: Tissue half-life of the particles. The conditions noted are these: in vivo.
Data set [2] can be described thus: Shelf-life of the compounds. Type of data set: physicochemical.
The test system of data set [3] is adrenal gland. The experiment in a line: MRI of adrenal glands after ACTH-MNP injection. Type of data set: in vivo, mouse. The conditions noted are these: tail vein. How it is done: ACTH-MNP was injected through tail vein (approximately 1 μg iron-oxide per gram of body weight) in a 1-day old mouse and a 60-day old mouse. MR images (T2, TE 6000, TR=[…], 0.4-1 mm slice thickness, 3 cm FOV, Brucker Biospin 7T) were obtain before, and up to 3 hours after injection with these contrast agents.

Data set [4] concerns AtT-20 cells. The experiment in a line: Functional studies of tumor cells: c-AMP production. Type of data set: cell-based, Murine. As to the method: Functional studies of tumor cells. Murine pituitary tumor cell lines (AtT-20 cells; American Type Culture Collection designation CCL-89™) were incubated with CRF and CRF-MNP preparations at 6 different molar concentrations of CRF and CRF-equivalent concentration of CRF-MNP (10^−12-10^−7 molar, factor of 10 increase per step). Production of c-AMP (nM) was measured after equivalent times of incubation with all the preparations.

Setting [5] is: equivalent CRF concentrations 10^−12-10^−7 molar.

Turning to “ACTH-MNP: Adrenocorticotropin Hormone (ACTH)-conjugated dextran-coated and epoxy surface-modified magnetonanoparticles, 10-15 nm diameter (SYSMEHFRWGKPVGKKRRPVKVYPNGAEDESAEAFPLEF; also: conjugated to dextran-coated, epoxy surface-modified magnetic nanoparticles; UniProt P01189 138-176, looked up)”, in data set [1], the tissue half-life entry is given as “order of hours to days”. Further, the shelf-life in data set [2] is 2-3 months. For the same substance, the “uptake in the adrenals” value is on record as “increased uptake (decreased signal intensity)” in data set [3] (1-day old mouse, 5 μl) and “increased uptake (decreased signal intensity)” in data set [3] (60 day old mouse, 100 μl).

Take “CRF-MNP: CRF-conjugated dextran-coated and maleimide surface-modified magnetonanoparticles, 10-15 nm diameter”: the tissue half-life result in data set [1] is on record as “order of hours to days”. Besides, the cytotoxicity result in data set [4] (AtT-20 cells) is listed as “not cytotoxic”. Also, the “functional properties of CRF while conjugated to the nanoparticles” value in data set [4] (cellular level) is on record as “retains its functional properties”. Also, in data set [4] (setting [5]), the “decrease in potency compared to CRF (c-AMP production)” value is reported as “approximately 10 fold” and the “increase in efficacy compared to CRF (c-AMP production)” value is “two-fold increase”. For the same substance, the shelf-life in data set [2] was 6-12 months.
